The results in this text go back to paper PMC9713952.

In the data set the target is T1, MBP-RAD51AP1-His6 WT (UniProt Q96B01 1-352).
T1 sequence: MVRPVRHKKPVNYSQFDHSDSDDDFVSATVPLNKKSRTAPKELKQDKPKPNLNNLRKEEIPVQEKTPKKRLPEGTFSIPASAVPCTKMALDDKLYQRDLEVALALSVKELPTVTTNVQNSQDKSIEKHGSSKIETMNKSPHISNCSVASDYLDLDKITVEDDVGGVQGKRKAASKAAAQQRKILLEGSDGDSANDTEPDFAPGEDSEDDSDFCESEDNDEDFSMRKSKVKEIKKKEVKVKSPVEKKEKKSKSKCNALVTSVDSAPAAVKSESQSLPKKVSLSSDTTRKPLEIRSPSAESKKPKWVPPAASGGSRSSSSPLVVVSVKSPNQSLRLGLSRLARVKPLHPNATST
Description: EMSA. For orientation: A gel shift assay detects complexes by their altered migration in electrophoresis.

B1: TERRA R-loop (mixed)
DNA 1: CATTGCATATTTAAAACATGTTGGATCTCAATTTCTATTTTATTTTTATTTTTTATTTCTTTATTTTACCATGAATTCAAATGACCTCTTATCAAGTGAC
DNA 2: GTCACTTGATAAGAGGTCATTTGAATTCATCCTAACCCTAACCCTAACCCTAACCCTAACCCTAACCCTAAGAGATCCAACATGTTTTAAATATGCAATG
RNA: UUAGGGUUAGGGUUAGGGUUAGGGUUAGGGUUAGGGUUAG
Take B1: the binding result was “binds”.
